Source: patent US20200405833A1 (AFFIMED, published 2020)

T1: Mouse FcRn (FCGRT/B2M) (mouse, UniProt Q61559 22-297; P01887 21-119, biotin-labelled (Avi-Tag))
T1 construct: Purchased; also called murine FcRn; murine FcRn receptor
T1 sequence (looked up): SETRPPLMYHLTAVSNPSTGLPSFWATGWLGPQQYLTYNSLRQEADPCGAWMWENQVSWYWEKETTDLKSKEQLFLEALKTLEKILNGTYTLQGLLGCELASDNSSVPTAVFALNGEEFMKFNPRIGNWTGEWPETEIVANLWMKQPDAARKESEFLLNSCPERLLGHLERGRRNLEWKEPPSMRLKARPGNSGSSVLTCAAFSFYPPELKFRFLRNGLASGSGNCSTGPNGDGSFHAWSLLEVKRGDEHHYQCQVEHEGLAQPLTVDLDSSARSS
T1 sequence (b2m, looked up): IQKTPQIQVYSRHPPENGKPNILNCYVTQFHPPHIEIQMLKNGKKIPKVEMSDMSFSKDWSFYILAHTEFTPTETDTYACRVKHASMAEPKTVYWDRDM

B1: Bi-scFv-Fc_02 (bispecific antibody, human IgG1)
chain: SYVLTQPSSVSVAPGQTATISCGGHNIGSKNVHWYQQRPGQSPVLVIYQDNKRPSGIPERFSGSNSGNTATLTISGTQAMDEADYYCQVWDNYSVLFGGGTKLTVLGGSGGSGGSGGSGGSGGSGGSQVQLVQSGAEVKKPGESLKVSCKASGYTFTSYYMHWVRQAPGQGLEWMGIINPSGGSTSYAQKFQGRVTMTRDTSTSTVYMELSSLRSEDTAVYYCARGSAYYYDFADYWGQGTLVTVSSEPKSCDKTHTCPPCPAPEFEGGPSVFLFPPKPKDTLMISRTPEVTCVVVAVSHEDPEVKFNWYVDGVEVHNAKTKPREEQYNSTYRVVSVLTVLHQDWLNGKEYKCKVSNKALPAPIEKTISKAKGQPREPQVYTLPPSREEMTKNQVSLTCLVKGFYPSDIAVEWESNGQPENNYKTTPPVLDSDGSFFLYSKLTVDKSRWQQGNVFSCSVMHEALHNHYTQKSLSLSPGGGGGSGGGGSQVQLQESGPGLVKPSETLSLTCTVSGGSVSSGSYYWSWIRQPPGKGLEWIGYIYYSGSTNYNPSLKSRVTISVDTSKNQFSLKLSSVTAADTAVYYCARNPISIPAFDIWGQGTMVTVSSGGSGGSGGSGGSGGSGGSQPVLTQPPSVSVAPGKTARITCGGNNIGSKSVHWYQQKPGQAPVLVIYYDSDRPSGIPERFSGSNSGNTATLTISRVEAGDEADYYCQVWDTSSDHVLFGGGTKLTVL
notes: Homodimer: anti-CD16A scFv-Hinge-CH2-CH3 (silenced)-anti-EGFR scFv; also called EGFR/CD16A Bi-scFv-Fc; Bi-scFv-Fc_2
B2: EGFR/CD16A/HSA aTriFlex (other)
chain 1: QVQLQESGPGLVKPSETLSLTCTVSGGSVSSGSYYWSWIRQPPGKGLEWIGYIYYSGSTNYNPSLKSRVTISVDTSKNQFSLKLSSVTAADTAVYYCARNPISIPAFDIWGQGTMVTVSSGGSGGSGGSGGSGGSGGSQPVLTQPPSVSVAPGKTARITCGGNNIGSKSVHWYQQKPGQAPVLVIYYDSDRPSGIPERFSGSNSGNTATLTISRVEAGDEADYYCQVWDTSSDHVLFGGGTKLTVLGGSGGSGGSSYVLTQPSSVSVAPGQTATISCGGHNIGSKNVHWYQQRPGQSPVLVIYQDNKRPSGIPERFSGSNSGNTATLTISGTQAMDEADYYCQVWDNYSVLFGGGTKLTVLGGSGGSGGSSYVLTQPSSVSVAPGQTATISCGGHNIGSKNVHWYQQRPGQSPVLVIYQDNKRPSGIPERFSGSNSGNTATLTISGTQAMDEADYYCQVWDNYSVLFGGGTKLTVLGGSGGSGGSEVQLLESGGGLVQPGGSLRLSCAVSGIDLSNYAINWVRQAPGKGLEWIGIIWASGTTFYATWAKGRFTISRDNSKNTVYLQMNSLRAEDTAVYYCARTVPGYSTAPYFDLWGQGTLVTVSSGGSGGSGGSGGSGGSGGSDIQMTQSPSSVSASVGDRVTITCQSSPSVWSNFLSWYQQKPGKAPKLLIYEASKLTSGVPSRFSGSGSGTDFTLTISSLQPEDFATYYCGGGYSSISDTTFGGGTKVEIK
chain 2: QVQLVQSGAEVKKPGESLKVSCKASGYTFTSYYMHWVRQAPGQGLEWMGIINPSGGSTSYAQKFQGRVTMTRDTSTSTVYMELSSLRSEDTAVYYCARGSAYYYDFADYWGQGTLVTVSSGGSGGSGGSQVQLVQSGAEVKKPGESLKVSCKASGYTFTSYYMHWVRQAPGQGLEWMGIINPSGGSTSYAQKFQGRVTMTRDTSTSTVYMELSSLRSEDTAVYYCARGSAYYYDFADYWGQGTLVTVSS
notes: also called EGFR/CD16A aTriFlex
B3: scFv-IgAb_01 (bispecific antibody)
chain 1: QVQLQESGPGLVKPSETLSLTCTVSGGSVSSGSYYWSWIRQPPGKGLEWIGYIYYSGSTNYNPSLKSRVTISVDTSKNQFSLKLSSVTAADTAVYYCARNPISIPAFDIWGQGTMVTVSSASTKGPSVFPLAPSSKSTSGGTAALGCLVKDYFPEPVTVSWNSGALTSGVHTFPAVLQSSGLYSLSSVVVPSSSLGTQTYICNVNHKPSNTKVDKKVEPKSCDKTHTCPPCPAPEFEGGPSVFLFPPKPKDTLMISRTPEVTCVVVAVSHEDPEVKFNWYVDGVEVHNAKTKPREEQYNSTYRVVSVLTVLHQDWLNGKEYKCKVSNKALPAPIEKTISKAKGQPREPQVYTLPPSREEMTKNQVSLTCLVKGFYPSDIAVEWESNGQPENNYKTTPPVLDSDGSFFLYSKLTVDKSRWQQGNVFSCSVMHEALHNHYTQKSLSLSPGGGGGSGGGGSSYVLTQPSSVSVAPGQTATISCGGHNIGSKNVHWYQQRPGQSPVLVIYQDNKRPSGIPERFSGSNSGNTATLTISGTQAMDEADYYCQVWDNYSVLFGGGTKLTVLGGSGGSGGSGGSGGSGGSGGSQVQLVQSGAEVKKPGESLKVSCKASGYTFTSYYMHWVRQAPGQGLEWMGIINPSGGSTSYAQKFQGRVTMTRDTSTSTVYMELSSLRSEDTAVYYCARGSAYYYDFADYWGQGTLVTVSS
chain 2: QPVLTQPPSVSVAPGKTARITCGGNNIGSKSVHWYQQKPGQAPVLVIYYDSDRPSGIPERFSGSNSGNTATLTISRVEAGDEADYYCQVWDTSSDHVLFGGGTKLTVLGQPKAAPSVTLFPPSSEELQANKATLVCLISDFYPGAVTVAWKADSSPVKAGVETTTPSKQSNNKYAASSYLSLTPEQWKSHRSYSCQVTHEGSTVEKTVAPTECS

Legend:
huCD16A^RV-His = target: T2, huCD16A^RV-His (human); test: ELISA, coated EGFR/CD16A Bi-scFv-Fc, soluble huCD16A^RV-His titrated (the concentration axis is that of the antigen), Penta-HIS-HRP per paragraph 126
T2 construct: soluble, His-tagged; also called CD16-His antigen
Method: (§1) 96-well ELISA plates (Immuno MaxiSorp; Nunc) were coated overnight at 4° C. with recombinant antigen or antibodies in 100 mM Carbonate-bicarbonate buffer. […] After a blocking step with 3% (w/v) skim milk powder (Merck) dissolved in PBS, serial dilutions of the different antibodies or soluble antigens in PBS containing 0.3% (w/v) skim milk powder were incubated on the plates for 1.5 h at room temperature. After washing three times with 300 μL per well of PBS containing 0.1% (v/v) Tween 20, plates were incubated with detection antibodies for 1 h at room temperature. For the detection of His-tagged analytes, Penta-HIS-HRP (Qiagen) was used at 1:3000 dilution. […] After washing three times with 300 μL per well of PBS containing 0.1% (v/v) Tween 20, plates were incubated with Tetramethylbenzidine (TMB) substrate (Seramun) until colour development was clearly visible. The reaction was stopped through the addition of 100 μL per well of 0.5 M H₂SO₄. The absorbance was measured at 450 nm using a multilabel plate reader (Victor, Perkin Elmer).

[1] = target: T3, CD16A on primary human NK-cells (human, UniProt P08637 17-254); test: flow cytometry on primary human NK-cells, 37°C, with 10 mg/mL polyclonal human IgG (Gammanorm); mean of 2 experiments
T3 construct: whole, on cells; also called FcγRIIIA
Method: (§2) After the last staining step, the cells were washed again and resuspended in 0.2 mL of FACS buffer containing 2 μg/mL propidium iodide (PI) (Sigma, cat.: P4170) in order to exclude dead cells. The fluorescence of 2-5×10³ living cells was measured using a Millipore Guava EasyCyte flow cytometer (Merck Millipore, Schwalbach, Germany). Mean fluorescence intensities of the cell samples were calculated using Incyte software (Merck Millipore, Schwalbach, Germany). After subtracting the fluorescence intensity values of the cells stained with the secondary and tertiary reagents alone, the values were used for non-linear regression analysis using the GraphPad Prism software (GraphPad Prism version 6.00 for Windows, GraphPad Software, La Jolla Calif. USA). For the calculation of KD, the equation for one-site-binding (hyperbola) was used.
(§3) To assess the impact of physiological concentrations of human IgG on the binding capacity of bispecific EGFR/CD16A antigen-binding proteins, binding assays with several bispecific EGFR/CD16A antigen-binding proteins on primary human NK-cells were performed in presence or absence of 10 mg/mL polyclonal human IgG as exemplarily shown in FIG. 10.

human EGFR on cells [2] = target: T4, human EGFR on cells (human, UniProt P00533 25-1210); test: cell-based or functional assay
human EGFR on cells [3] = target: T4, human EGFR on cells; test: flow cytometry on EGFR-expressing A-431 cells, 37° C.
Human FcRn (FCGRT/B2M) = target: T5, Human FcRn (FCGRT/B2M) (human, UniProt P55899 24-297; P61769 21-119, biotin-labelled (site not stated)); test: SPR (Biacore T200), pH 6.0, biotinylated FcRn captured, multi cycle kinetics, 1:1 model
T5 construct: Purchased; also called FcRn (FCGRT/B2M), His-Tag, Biotin-Labeled, (Human) HiP Cat #71283

Mouse FcRn (FCGRT/B2M) = target: T1, Mouse FcRn (FCGRT/B2M); test: as above
Method: (§4) Binding of EGFR/CD16A antigen-binding proteins to FcRn (human, cynomolgus, murine) was measured on a Biacore T200 Instrument at 25° C. using PBS-T buffer pH 6.0 as running buffer and for dilution (1×Gibco PBS, 0.005% Tween20, titrated to pH 6.0 using 4 M HCl). For this purpose, a Multi Cycle Kinetic experiments was performed using Biotin CAPture Kit (GE Healthcare). For activation of the sensor surface, Biotin CAPture reagent (GE Healthcare) was injected to Flow Cells Fc 1-4 (100 sec, 5 μL/min) resulting in a response of 2100 RU-2800 RU. Biotinylated FcRn of different species were injected to Flow Cell Fc 2 (5 μL/min) resulting in a response of about 8-15 RU. A dilution series of EGFR/CD16A antigen-binding proteins was in (pH 7.4) as running buffer and for dilution. […] Chip was regenerated using Regeneration solution (GE Healthcare) (10 μL/min, Flow cells 1-4, 120 sec). Sensorgrams are referenced by subtraction of zero concentration cycle and subtraction of signals in reference channel Fc 1 (Fc 2-1, Fc 3-1, Fc 4-1). […] Chip was regenerated using Regeneration solution (GE Healthcare) (10 μL/min, Flow cells 1-4, 120 sec). […] Binding kinetics were evaluated by fitting data to 1:1 Binding Model (Rmax and RI locally fitted) using Biacore T200 Evaluation Software.

[4] = target: T6, Cynomolgus FcRn (FCGRT/B2M) (cynomolgus, UniProt Q8SPV9 24-297; Q8SPW0 21-119, biotin-labelled (Avi-Tag)); test: as above
T6 construct: Purchased; also called FcRn (FCGRT/B2M), Avi-Tag, Biotin-Labeled, (Cynomolgus) Acro Cat #FCM-C82W5
Method: as §4

[5] = target: T3, CD16A on primary human NK-cells; test: flow cytometry on primary human NK-cells, 37° C., without gammanorm
Method: as §2, §3

human EGFR on cells [6] = target: T4, human EGFR on cells; test: cell-based or functional assay; remark: listed apart in the source
EGFR-mFc = target: T7, EGFR-mFc; test: ELISA, coated EGFR-mFc antigen, Bi-scFv-Fc titrated, bound construct detected with biotinylated CD16-Fc and streptavidin-HRP
T7 construct: Coated at 2.5 µg/mL in ELISA; also called monomeric EGFR-mFc; EGFR-mFc antigen
Method: as §1

[7] = target: T3, CD16A on primary human NK-cells; test: flow cytometry on primary human NK-cells, 37°C, without IgG; mean of 2 experiments
Method: as §2, §3

EGFR-antigen (ELISA) = target: T8, EGFR-antigen (ELISA); test: ELISA, coated EGFR-Fc antigen, aTriFlex titrated (His-tagged analyte, Penta-HIS-HRP per paragraph 126)
T8 construct: also called EGFR-Fc
Method: as §1

[8] = target: T3, CD16A on primary human NK-cells; test: flow cytometry on primary human NK-cells, 37°C, with 10 mg/mL polyclonal human IgG (Gammanorm); with 10 mg/mL polyclonal human IgG (Gammanorm)
CD16A-antigen (ELISA) = target: T9, CD16A-antigen (ELISA); test: ELISA, coated CD16A-Fc antigen, aTriFlex titrated (His-tagged analyte, Penta-HIS-HRP per paragraph 126)
T9 construct: also called CD16A-Fc
Method: as §1

human EGFR on cells [9] = target: T4, human EGFR on cells; test: flow cytometry on A-431 cells, 37°C; mean of 4 experiments
human EGFR on cells [10] = target: T4, human EGFR on cells; test: cell-based or functional assay; remark: listed apart in the source

T5 sequence (P55899 24-297 limits assumed, chain 1 of 2): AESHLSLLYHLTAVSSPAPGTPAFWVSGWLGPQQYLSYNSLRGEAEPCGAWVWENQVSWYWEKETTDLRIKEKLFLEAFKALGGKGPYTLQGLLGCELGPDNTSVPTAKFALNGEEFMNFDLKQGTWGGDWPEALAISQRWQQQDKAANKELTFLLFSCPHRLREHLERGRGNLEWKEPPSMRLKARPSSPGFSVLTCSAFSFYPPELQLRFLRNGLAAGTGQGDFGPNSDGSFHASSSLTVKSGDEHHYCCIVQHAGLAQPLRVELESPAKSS
T5 sequence (P61769 21-119 limits assumed, chain 2 of 2): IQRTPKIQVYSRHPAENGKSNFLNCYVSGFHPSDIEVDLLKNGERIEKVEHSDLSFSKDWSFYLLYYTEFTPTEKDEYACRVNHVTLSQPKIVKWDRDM
T6 sequence (Q8SPV9 24-297 limits assumed, chain 1 of 2): as the sequence (P55899 24-297 limits assumed, chain 1 of 2) above, with N39D, E44Q, G99S, S189G, S190N, L217M, S269T counted along it
T6 sequence (Q8SPW0 21-119 limits assumed, chain 2 of 2): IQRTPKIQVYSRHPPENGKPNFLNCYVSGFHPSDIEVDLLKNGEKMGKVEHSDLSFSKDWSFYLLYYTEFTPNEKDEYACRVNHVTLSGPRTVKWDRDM

Binder	EC50 (read off the curve) (huCD16A^RV-His) [nM]	Kd [1] [nM]	EC50 [pM] mean, 4 h calcein-release cytotoxicity, HCT-116 target cells, human NK-cells E:T 5:1 (human EGFR on cells [2]) [pM]	EC50 (read off the curve) (human EGFR on cells [3]) [nM]	Kd (Human FcRn (FCGRT/B2M)) [nM]	Kd (Mouse FcRn (FCGRT/B2M)) [nM]	Kd [4] [nM]	EC50 (read off the curve) [5] [nM]	EC50 [pM] mean, 4 h calcein-release cytotoxicity, A-431 target cells, human NK-cells E:T 5:1 (human EGFR on cells [6]) [pM]	EC50 (read off the curve) (EGFR-mFc) [µg/mL]	Kd [7] [nM]	EC50 (read off the curve) (EGFR-antigen (ELISA)) [nM]	Kd [8] [nM]	EC50 (read off the curve) (CD16A-antigen (ELISA)) [nM]	Kd (human EGFR on cells [9]) [nM]	EC50, inhibition of EGF-induced EGFR phosphorylation (phospho-EGFR ELISA, A-431 cells), Exp.2 (human EGFR on cells [10]) [µg/mL]
B1	~4	20	3.8	~2	410	121	268	~6	2.7	~0.02	5					
B2			17.6						5.1		50.8	~7	456	~4		
B3															2	> 100
